Assay results published in patent publication US20240317834A1, “COMPOSITIONS AND METHODS FOR NEUROLOGICAL DISEASES” (CODA BIOTHERAPEUTICS, INC., priority 2020, published 2024).

Columns and labels:
rat DRG neurons = test: Rheobase shift and evoked action potentials in rat DRG neurons (current clamp); format: cell-based
Outline: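 Rat DRG neurons expressing engineered receptors, whole-cell current clamp at RT. ECS at pH 7.3; K-gluconate internal at pH 7.2. 500 ms steps from −200 to 700 pA with and without ligand. Rheobase taken as the smallest depolarising step that fires an action potential; input resistance from negative steps.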

Lenti-X 293T cells = test: YFP fluorescence quenching anion reporter plate reader assay of engineered receptors stimulated with acetylcholine or a non-native ligand; format: cell-based
Outline: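 YFP quench was followed for about 1 min 43 s after ligand delivered in iodide-based ECS, pH 7.2. Values are end-of-read fluorescence (last 10 s) divided by the pre-ligand baseline (15 s). Cells were LX293T, transfected with receptor DNA a day before the assay.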

B1: CODA1048: engineered chimeric LGIC receptor, R101F, Y210F in SEQ ID NO: 33 (protein)
chain: MRCSPGGVWLALAASLLHVSLQGEFQRKLYKELVKNYNPLERPVANDSQPLTVYFSLSLLQIMDVDEKNQVLTTNIWLQMSWTDHYLQWNVSEYPGVKTVFFPDGQIWKPDILLYNSADERFDATFHTNVLVNSSGHCQYLPPGIFKSSCPMDLKNFPMDVQTCKLKFGSWSYGGWSLDLQMQEADISGYIPNGEWDLVGIPGKRSERFFECCKEPYPDVTFTVTMRRRMGYYLIQMYIPSLLIVILSWISFWINMDAAPARVGLGITTVLTMTTQSSGSRASLPKVSYVKAIDIWMAVCLLFVFSALLEYAAVNFVSRQHKELLRFRRKRRHHKSPMLNLFQEDEAGEGRFNFSAYGMGPACLQAKDGISVKGANNSNTTNPPPAPSKSPEEMRKLFIQRAKKIDKISRIGFPMAFLIFNMFYWIIYKIVRREDVHNQ
modifications: synthetic sequence of chimeric LGIC
B1 was tested, and the “Rheobase Shift; Rat DRG Neurons, +TC-5619 @ EC90” value (rat DRG neurons; +TC-5619 @ EC90) was 590 ± 46 pA, the “Rheobase Shift; Rat DRG Neurons, Baseline” value (rat DRG neurons; Baseline, no ligand) was 120 ± 19 pA and the “YFP fluorescence quenching using CNL001” value (Lenti-X 293T cells; 1 nM CNL001, first column) was 9.114%. The “YFP fluorescence quenching using CNL001” value (Lenti-X 293T cells; 1 nM CNL001, second column) was 0.845%, the “YFP fluorescence quenching using TC-5619/Bradanicline” value (Lenti-X 293T cells; 1 nM brd) was −2.084% and the “YFP fluorescence quenching using TC-5619/Bradanicline” value (Lenti-X 293T cells; 3 nM brd) was −9.098%. For the same molecule, the “YFP fluorescence quenching using Varenicline” value (Lenti-X 293T cells; 3 nM var, first column) was −17.119, the “YFP fluorescence quenching using Varenicline” value (Lenti-X 293T cells; 3 nM var, second column) was −13.234 and the “YFP fluorescence quenching using CNL001” value (Lenti-X 293T cells; 10 nM CNL001, first column) was 28.944%. The “YFP fluorescence quenching using CNL001” value (Lenti-X 293T cells; 10 nM CNL001, second column) was 53.629%, the “YFP fluorescence quenching using TC-5619/Bradanicline” value (Lenti-X 293T cells; 10 nM brd) was −2.587% and the “YFP fluorescence quenching using TC-5619/Bradanicline” value (Lenti-X 293T cells; 30 nM brd) was 55.818%. The “YFP fluorescence quenching using Varenicline” value (Lenti-X 293T cells; 30 nM var, first column) was −7.747, the “YFP fluorescence quenching using Varenicline” value (Lenti-X 293T cells; 30 nM var, second column) was 4.193 and the “YFP fluorescence quenching using CNL001” value (Lenti-X 293T cells; 50 nM CNL001, first column) was 68.581%. The “YFP fluorescence quenching using CNL001” value (Lenti-X 293T cells; 50 nM CNL001, second column) was 74.379%, the “YFP fluorescence quenching using ABT-126” value (Lenti-X 293T cells; 50 nM abt) was −23.28% and the “YFP fluorescence quenching using CNL001” value (Lenti-X 293T cells; 100 nM CNL001, first column) was 80.541%. For the same molecule, the “YFP fluorescence quenching using CNL001” value (Lenti-X 293T cells; 100 nM CNL001, second column) was 80.774%, the “YFP fluorescence quenching using ABT-126” value (Lenti-X 293T cells; 100 nM abt) was −21.78% and the “YFP fluorescence quenching using TC-5619/Bradanicline” value (Lenti-X 293T cells; 100 nM brd) was 76.957%. The “YFP fluorescence quenching using ABT-126” value (Lenti-X 293T cells; 300 nM abt) was −19.35%, the “YFP fluorescence quenching using TC-5619/Bradanicline” value (Lenti-X 293T cells; 300 nM brd) was 74.268% and the “YFP fluorescence quenching using Varenicline” value (Lenti-X 293T cells; 300 nM var, first column) was 4.149. For the same molecule, the “YFP fluorescence quenching using Varenicline” value (Lenti-X 293T cells; 300 nM var, second column) was 1.512, the “YFP fluorescence quenching using Varenicline” value (Lenti-X 293T cells; 500 nM var, first column) was −1.572 and the “YFP fluorescence quenching using Varenicline” value (Lenti-X 293T cells; 500 nM var, second column) was 3.71. For the same molecule, the “YFP fluorescence quenching using CNL001” value (Lenti-X 293T cells; 1 uM CNL001, first column) was 83.143%, the “YFP fluorescence quenching using CNL001” value (Lenti-X 293T cells; 1 uM CNL001, second column) was 81.751% and the “YFP fluorescence quenching using ABT-126” value (Lenti-X 293T cells; 1 uM abt) was −16.33%. The “YFP fluorescence quenching using Varenicline” value (Lenti-X 293T cells; 1 uM var, first column) was 8.414, the “YFP fluorescence quenching using Varenicline” value (Lenti-X 293T cells; 1 uM var, second column) was 4.091 and the “percent quench of YFP fluorescence, 30 nM TC-6683” value (Lenti-X 293T cells; TC-6683 30 nM) was −29.055%. For the same molecule, the “percent quench of YFP fluorescence, 300 nM TC-6683” value (Lenti-X 293T cells; TC-6683 300 nM) was −33.935%, the “percent quench of YFP fluorescence, 3 uM TC-6683” value (Lenti-X 293T cells; TC-6683 3 uM) was −24.613% and the “percent quench of YFP fluorescence, 30 uM TC-6683” value (Lenti-X 293T cells; TC-6683 30 uM) was −21.752%. For the same molecule, the “percent quench of YFP fluorescence, 100 uM TC-6683” value (Lenti-X 293T cells; TC-6683 100 uM) was −22.815%, the “percent quench of YFP fluorescence, 100 uM ach” value (Lenti-X 293T cells; acetylcholine 100 uM) was −17.31% and the “percent quench of YFP fluorescence, 300 uM ach” value (Lenti-X 293T cells; acetylcholine 300 uM) was −13.7%. The “percent quench of YFP fluorescence, 500 uM ach” value (Lenti-X 293T cells; acetylcholine 500 uM) was −10.1%, the “percent quench of YFP fluorescence, 1 mM ach” value (Lenti-X 293T cells; acetylcholine 1 mM) was 5.53% and the “percent quench of YFP fluorescence, 3 mM ach” value (Lenti-X 293T cells; acetylcholine 3 mM) was 68.61%. For the same molecule, the “percent quench of YFP fluorescence, 10 mM ach” value (Lenti-X 293T cells; acetylcholine 10 mM) was 78.22%.
